According to the Human Domainome abundance scans (Beltran et al. 2025):
± gives the uncertainty stated by the source.

Assay: abundance fitness (aPCA) (normalised: wild type 0, dead -1); higher = more abundant; growth selection in yeast, the domain comes from the species named
Details: Homo sapiens

Substance	abundance fitness
DnaJ homolog subfamily B member 1 A12C, P25685	-0.213 ± 0.14
DnaJ homolog subfamily B member 1 K60E, P25685	-0.159 ± 0.14
DnaJ homolog subfamily B member 1 K35M, P25685	-0.596 ± 0.1
DnaJ homolog subfamily B member 1 E47V, P25685	-0.295 ± 0.088
DnaJ homolog subfamily B member 1 R61G, P25685	-0.406 ± 0.1
DnaJ homolog subfamily B member 1 S16V, P25685	-0.301 ± 0.066
DnaJ homolog subfamily B member 1 K37G, P25685	-0.319 ± 0.11
DnaJ homolog subfamily B member 1 A28T, P25685	-0.094 ± 0.1
DnaJ homolog subfamily B member 1 Q27T, P25685	-0.266 ± 0.12
DnaJ homolog subfamily B member 1 L29P, P25685	-0.461 ± 0.16
DnaJ homolog subfamily B member 1 D57F, P25685	-0.668 ± 0.17
DnaJ homolog subfamily B member 1 P33W, P25685	-0.455 ± 0.096
DnaJ homolog subfamily B member 1 Y6V, P25685	-1.18 ± 0.086
DnaJ homolog subfamily B member 1 Y6Q, P25685	-0.742 ± 0.13
DnaJ homolog subfamily B member 1 A41M, P25685	-0.214 ± 0.089
DnaJ homolog subfamily B member 1 D17F, P25685	-0.183 ± 0.12
DnaJ homolog subfamily B member 1 V54T, P25685	0.065 ± 0.12
DnaJ homolog subfamily B member 1 Y5A, P25685	-0.316 ± 0.13
DnaJ homolog subfamily B member 1 D53Y, P25685	-0.356 ± 0.077
DnaJ homolog subfamily B member 1 P58R, P25685	-0.11 ± 0.073
DnaJ homolog subfamily B member 1 E42H, P25685	-0.003 ± 0.098
DnaJ homolog subfamily B member 1 Y6A, P25685	-0.991 ± 0.18
DnaJ homolog subfamily B member 1 D34H, P25685	-0.008 ± 0.11
DnaJ homolog subfamily B member 1 K46I, P25685	-0.116 ± 0.15
DnaJ homolog subfamily B member 1 R26I, P25685	0.071 ± 0.16
DnaJ homolog subfamily B member 1 A23F, P25685	-0.816 ± 0.1

Substance	abundance fitness
DnaJ homolog subfamily B member 1 E42Q, P25685	-0.157 ± 0.12
DnaJ homolog subfamily B member 1 S16P, P25685	-0.123 ± 0.062
DnaJ homolog subfamily B member 1 D34R, P25685	-0.242 ± 0.089
DnaJ homolog subfamily B member 1 G10L, P25685	-0.223 ± 0.058
DnaJ homolog subfamily B member 1 D34M, P25685	-0.053 ± 0.1
DnaJ homolog subfamily B member 1 G14H, P25685	-0.133 ± 0.24
DnaJ homolog subfamily B member 1 K35N, P25685	-0.742 ± 0.13
DnaJ homolog subfamily B member 1 K44G, P25685	-0.39 ± 0.062
DnaJ homolog subfamily B member 1 P58L, P25685	-0.163 ± 0.057
DnaJ homolog subfamily B member 1 K37L, P25685	-0.286 ± 0.061
DnaJ homolog subfamily B member 1 I48L, P25685	-0.089 ± 0.072
DnaJ homolog subfamily B member 1 R30Q, P25685	0.087 ± 0.11
DnaJ homolog subfamily B member 1 L55Y, P25685	-0.873 ± 0.16
DnaJ homolog subfamily B member 1 R26Y, P25685	-0.344 ± 0.19
DnaJ homolog subfamily B member 1 Q27F, P25685	-0.115 ± 0.13
DnaJ homolog subfamily B member 1 F45W, P25685	0 ± 0.099
DnaJ homolog subfamily B member 1 A51V, P25685	-0.915 ± 0.065
DnaJ homolog subfamily B member 1 I20Q, P25685	-0.759 ± 0.13
DnaJ homolog subfamily B member 1 Y24Q, P25685	-0.547 ± 0.091
DnaJ homolog subfamily B member 1 I20G, P25685	-0.9 ± 0.071
DnaJ homolog subfamily B member 1 A12S, P25685	-0.191 ± 0.078
DnaJ homolog subfamily B member 1 P33S, P25685	0.018 ± 0.083
DnaJ homolog subfamily B member 1 A28N, P25685	-0.119 ± 0.12
DnaJ homolog subfamily B member 1 A28R, P25685	0.033 ± 0.09
DnaJ homolog subfamily B member 1 K35F, P25685	-0.614 ± 0.11
DnaJ homolog subfamily B member 1 Y31L, P25685	-0.16 ± 0.063

Substance	abundance fitness
DnaJ homolog subfamily B member 1 R25C, P25685	-0.22 ± 0.14
DnaJ homolog subfamily B member 1 Q7E, P25685	-0.547 ± 0.13
DnaJ homolog subfamily B member 1 Q27H, P25685	-0.168 ± 0.18
DnaJ homolog subfamily B member 1 E43F, P25685	-0.093 ± 0.19
DnaJ homolog subfamily B member 1 Y5V, P25685	-1.47 ± 0.2
DnaJ homolog subfamily B member 1 A49F, P25685	-0.358 ± 0.15
DnaJ homolog subfamily B member 1 Q7I, P25685	-0.144 ± 0.17
DnaJ homolog subfamily B member 1 Y31D, P25685	-0.27 ± 0.16
DnaJ homolog subfamily B member 1 R30A, P25685	0.033 ± 0.072
DnaJ homolog subfamily B member 1 Y24S, P25685	-0.464 ± 0.055
DnaJ homolog subfamily B member 1 R30C, P25685	0.042 ± 0.16
DnaJ homolog subfamily B member 1 E47K, P25685	-0.43 ± 0.12
DnaJ homolog subfamily B member 1 R26K, P25685	0.052 ± 0.18
DnaJ homolog subfamily B member 1 F64Y, P25685	0.009 ± 0.48
DnaJ homolog subfamily B member 1 N36V, P25685	-0.158 ± 0.088
DnaJ homolog subfamily B member 1 R26N, P25685	0.102 ± 0.17
DnaJ homolog subfamily B member 1 A28L, P25685	-0.032 ± 0.065
DnaJ homolog subfamily B member 1 S56R, P25685	-0.226 ± 0.091
DnaJ homolog subfamily B member 1 E43K, P25685	0.156 ± 0.1
DnaJ homolog subfamily B member 1 Y52S, P25685	-0.332 ± 0.058
DnaJ homolog subfamily B member 1 E62S, P25685	-0.212 ± 0.077
DnaJ homolog subfamily B member 1 A28V, P25685	0.043 ± 0.081
DnaJ homolog subfamily B member 1 N36T, P25685	0.092 ± 0.1
DnaJ homolog subfamily B member 1 A12K, P25685	-0.02 ± 0.077
DnaJ homolog subfamily B member 1 L9G, P25685	-0.855 ± 0.074
DnaJ homolog subfamily B member 1 L11I, P25685	0.015 ± 0.1

Substance	abundance fitness
DnaJ homolog subfamily B member 1 G10Q, P25685	-0.048 ± 0.083
DnaJ homolog subfamily B member 1 R13K, P25685	-0.097 ± 0.089
DnaJ homolog subfamily B member 1 D53C, P25685	-0.093 ± 0.37
DnaJ homolog subfamily B member 1 E62N, P25685	-0.567 ± 0.28
DnaJ homolog subfamily B member 1 Q7T, P25685	-0.008 ± 0.078
DnaJ homolog subfamily B member 1 R61A, P25685	-0.596 ± 0.16
DnaJ homolog subfamily B member 1 I48Y, P25685	-0.386 ± 0.2
DnaJ homolog subfamily B member 1 E19W, P25685	-1.25 ± 0.17
DnaJ homolog subfamily B member 1 Y31W, P25685	-0.188 ± 0.1
DnaJ homolog subfamily B member 1 F64Q, P25685	-0.344 ± 0.28
DnaJ homolog subfamily B member 1 A49N, P25685	0.115 ± 0.17
DnaJ homolog subfamily B member 1 L29E, P25685	0.067 ± 0.15
DnaJ homolog subfamily B member 1 V54D, P25685	-0.419 ± 0.14
DnaJ homolog subfamily B member 1 E18G, P25685	-0.162 ± 0.066
DnaJ homolog subfamily B member 1 Q7C, P25685	0.031 ± 0.13
DnaJ homolog subfamily B member 1 P58N, P25685	-0.306 ± 0.2
DnaJ homolog subfamily B member 1 F45G, P25685	-0.247 ± 0.089
DnaJ homolog subfamily B member 1 Q7P, P25685	-0.567 ± 0.088
DnaJ homolog subfamily B member 1 G14I, P25685	-0.235 ± 0.12
DnaJ homolog subfamily B member 1 E50Q, P25685	-0.177 ± 0.082
DnaJ homolog subfamily B member 1 L9N, P25685	-0.664 ± 0.11
DnaJ homolog subfamily B member 1 R26Q, P25685	-0.019 ± 0.22
DnaJ homolog subfamily B member 1 H32Y, P25685	-0.192 ± 0.21
DnaJ homolog subfamily B member 1 R25I, P25685	0.008 ± 0.13
DnaJ homolog subfamily B member 1 A12T, P25685	-0.28 ± 0.088
